# Laboratory results: the supplement of paper PMC10126150
# ± gives the standard deviation of the averaged measurements.
# System: ATP
# Test: switch fluorescence ratio, 500 uM ATP over buffer (Cy3 cluster intensity, sum of 5 cycles each) (fold (ratio)); higher = stronger signal-on switching upon ATP binding; sequences stand for … in TCGTCGGCAGCGTCAGATGTGTATAAGAGACAGTTTTTTTTTTTTTTTTTTTTTTTTT…TC
# Conditions: aptamer strand: ATP DNA aptamer (quencher-CACCTGGGGGAGTATTGCGGAGGAAGG + anchor), 100 nM annealed; ATP concentration: 500 uM
# Method in brief: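 Per cluster, summed Cy3 intensity from the target cycles was divided by that from the buffer cycles to give the fluorescence ratio, then averaged per switch-domain sequence. Clusters outside 100-1000 RFU were excluded. The Cy3-labelled switching-strand clusters, on a modified Illumina MiSeq flow-cell, were annealed to 100 nM quencher-labelled ATP aptamer and imaged in selection buffer, then after 15 min with 500 uM ATP at 22 °C, for five cycles with NaOH stripping and re-annealing between them.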
# 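Also: ATP exposure 15 min at 22 °C before imaging.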
row,Sequence,switch fluorescence ratio
1,GCAGGTGTGC,1.13 ± 0.082
2,GCAGTACGGC,1.05 ± 0.033
3,GCAGTCGCAA,1.1 ± 0.043
4,GCAGTCTGTG,0.98 ± 0.03
5,GCAGTGGGGT,1.01 ± 0.022
6,GCAGTGGGTC,0.995 ± 0.0057
7,GCAGTTATTT,0.966 ± 0.026
8,GCAGTTGGGG,0.998 ± 0.032
9,GCATAAATAG,1.02 ± 0.018
10,GCATAACATT,1.01 ± 0.014
11,GCATAAGAAA,1.03 ± 0.018
12,GCATAAGCTC,1.06 ± 0.062
13,GCATAAGGGC,0.959 ± 0.033
14,GCATATCTGT,1.0296 ± 0.00023
15,GCATCAGGAG,1.05 ± 0.021
16,GCATCCGGGA,0.956 ± 0.039
17,GCATGAAGGT,1 ± 0.014
18,GCATGAGCGG,1.01 ± 0.013
19,GCATGAGGAT,1.01 ± 0.06
20,GCATGAGGGA,0.993 ± 0.019
21,GCATGATCAA,0.997 ± 0.031
22,GCATGATGGG,0.986 ± 0.043
23,GCATGCGCTG,0.982 ± 0.015
24,GCATGCTGGT,1.01 ± 0.024
25,GCATGGCACC,1.01 ± 0.025

row,Sequence,switch fluorescence ratio
1,GCATGGGGAC,1.05 ± 0.081
2,GCATGGTTGG,0.976 ± 0.034
3,GCATGGTTTT,0.975 ± 0.029
4,GCATTAATG,1.03 ± 0.021
5,GCATTAGCTT,1.007 ± 0.01
6,GCATTAGGGG,1.01 ± 0.016
7,GCATTAGGTA,0.984 ± 0.024
8,GCATTGATGT,1.02 ± 0.017
9,GCATTGGTTC,1.02 ± 0.042
10,GCATTGTACG,0.991 ± 0.03
11,GCATTGTGCC,1.02 ± 0.022
12,GCATTTGAAG,0.953 ± 0.05
13,GCATTTGGGG,0.9686 ± 0.0032
14,GCATTTGTAC,1.266 ± 0.0026
15,GCATTTTTAT,1.02 ± 0.037
16,GCCAAGTTCG,0.9787 ± 0.0072
17,GCCACATTCA,0.991 ± 0.017
18,GCCACGGCGA,1.02 ± 0.021
19,GCCAGATGCG,1.05 ± 0.064
20,GCCAGATTAA,0.976 ± 0.014
21,GCCAGGCACT,1.005 ± 0.0077
22,GCCAGGGGGA,1.09 ± 0.12
23,GCCAGTAAGT,0.994 ± 0.039
24,GCCAGTAATA,1.1 ± 0.034
25,GCCAGTTGTC,0.998 ± 0.041

row,Sequence,switch fluorescence ratio
1,GCCATGGCGT,1.02 ± 0.031
2,GCCATGTCGA,0.9921 ± 0.0061
3,GCCATTGGGG,0.9872 ± 0.0012
4,GCCCAACTGT,1 ± 0.036
5,GCCCACGCTG,1.02 ± 0.011
6,GCCCCATTTT,1.01 ± 0.024
7,GCCCCTTAGG,1.1 ± 0.045
8,GCCCTATGTG,1.25 ± 0.034
9,GCCCTGGGGC,1.013 ± 0.0075
10,GCCCTGTATT,1.015 ± 0.0048
11,GCCCTTTTAA,0.982 ± 0.016
12,GCCGAACCTC,1.28 ± 0.037
13,GCCGAAGTCG,1.02 ± 0.025
14,GCCGACGGTG,1 ± 0.019
15,GCCGCGGGGT,1 ± 0.0017
16,GCCGCGTATA,1.43 ± 0.058
17,GCCGCGTATC,1.65 ± 0.12
18,GCCGCTGATG,0.982 ± 0.028
19,GCCGCTGGTG,1.22 ± 0.077
20,GCCGGAGGGA,0.989 ± 0.038
21,GCCGGCACTG,1.002 ± 0.0064
22,GCCGGCTTTG,1.03 ± 0.026
23,GCCGGGATGT,1.02 ± 0.052
24,GCCGGGCAGC,0.98 ± 0.035
25,GCCGGGGAGG,0.984 ± 0.038

row,Sequence,switch fluorescence ratio
1,GCCGGGGCAG,1.01 ± 0.033
2,GCCGGGGGGG,1.02 ± 0.02
3,GCCGGGGGTG,1.04 ± 0.023
4,GCCGGGTTAT,1.03 ± 0.079
5,GCCGTAACGG,0.982 ± 0.014
6,GCCGTAATGG,1.24 ± 0.089
7,GCCGTAATTA,1.09 ± 0.017
8,GCCGTCTGTG,0.9728 ± 0.0039
9,GCCGTGTGAT,0.986 ± 0.0083
10,GCCGTTGGGG,0.99 ± 0.031
11,GCCGTTTGTG,1.008 ± 0.0024
12,GCCGTTTTTT,0.97 ± 0.04
13,GCCTAAATGC,1.44 ± 0.28
14,GCCTAATGGT,0.993 ± 0.016
15,GCCTATGAGG,0.993 ± 0.038
16,GCCTATTGTT,0.983 ± 0.02
17,GCCTCAGGGT,1.08 ± 0.02
18,GCCTCCAGTT,1.15 ± 0.025
19,GCCTCTGGTG,1.33 ± 0.035
20,GCCTGAACTT,1.03 ± 0.006
21,GCCTGATACA,1.02 ± 0.031
22,GCCTGCCCCG,1.69 ± 0.026
23,GCCTGGACGA,1.04 ± 0.018
24,GCCTGGGAAG,0.976 ± 0.036
25,GCCTGGGGAA,0.9844 ± 0.0087
